From PMC4486934 come the findings set out here.

The data set concerns var2CSA (PfEMP1) (Plasmodium falciparum CS2). The data set can be described thus: cell binding, microfluidic partitioning and qPCR. The note with it: 2'-fluoro pyrimidines, TBB: 20 mM HEPES pH 7.4, 150 mM NaCl, 2 mM CaCl2, room temperature (cell binding); for binding signal: CS2 vs uninfected RBCs. (Real-time PCR tracks product formation cycle by cycle.)

Turning to “GGGAGCUCAGAAUAAACGCUCAAAUGUCUCCAGCUCUUGUGGCGAACCCAAGCGGGUUGACCAGAAUGCAUCAUUCGACAUGAGGCCCGGAUCCGGC [scr8.1-1]”, under “defines non-specific threshold, BLI in TBB”, the binding signal turned out to be 1.24 ddCp.
In turn, “GGGAGCUCAGAAUAAACGCUCAACAACGGAUCACACGCAAGCGAAUCUAUGUCCUUCGGGUCUAAGGGUCGCUUUCGACAUGAGGCCCGGAUCCGGC [8.1-1]” displayed a binding signal (100 nM, P = 0.0002, BLI in …) of 3.12 ddCp. In addition, where the note is “apparent Kd on CS2 infected RBCs, no enrichment on DC-J, BLI in TBB”, the Kd stood at 14 nM.
